Data: the supplement of paper PMC10065799, “High-throughput profiling of sequence recognition by tyrosine kinases and SH2 domains using bacterial peptide display” (eLife, 2023)

How the values were obtained:
AncSZ = assay: phosphorylation enrichment, bacterial display (enrichment ratio); higher = better substrate or ligand; peptides without Tyr show the background
EPHB1 = EPHB1 (UniProt P54762); assay: as above
EPHB2 = EPHB2 (UniProt P29323); assay: as above
FGFR1 = FGFR1 (UniProt P11362); assay: as above
Sequence of FGFR1 (P11362 whole entry, looked up): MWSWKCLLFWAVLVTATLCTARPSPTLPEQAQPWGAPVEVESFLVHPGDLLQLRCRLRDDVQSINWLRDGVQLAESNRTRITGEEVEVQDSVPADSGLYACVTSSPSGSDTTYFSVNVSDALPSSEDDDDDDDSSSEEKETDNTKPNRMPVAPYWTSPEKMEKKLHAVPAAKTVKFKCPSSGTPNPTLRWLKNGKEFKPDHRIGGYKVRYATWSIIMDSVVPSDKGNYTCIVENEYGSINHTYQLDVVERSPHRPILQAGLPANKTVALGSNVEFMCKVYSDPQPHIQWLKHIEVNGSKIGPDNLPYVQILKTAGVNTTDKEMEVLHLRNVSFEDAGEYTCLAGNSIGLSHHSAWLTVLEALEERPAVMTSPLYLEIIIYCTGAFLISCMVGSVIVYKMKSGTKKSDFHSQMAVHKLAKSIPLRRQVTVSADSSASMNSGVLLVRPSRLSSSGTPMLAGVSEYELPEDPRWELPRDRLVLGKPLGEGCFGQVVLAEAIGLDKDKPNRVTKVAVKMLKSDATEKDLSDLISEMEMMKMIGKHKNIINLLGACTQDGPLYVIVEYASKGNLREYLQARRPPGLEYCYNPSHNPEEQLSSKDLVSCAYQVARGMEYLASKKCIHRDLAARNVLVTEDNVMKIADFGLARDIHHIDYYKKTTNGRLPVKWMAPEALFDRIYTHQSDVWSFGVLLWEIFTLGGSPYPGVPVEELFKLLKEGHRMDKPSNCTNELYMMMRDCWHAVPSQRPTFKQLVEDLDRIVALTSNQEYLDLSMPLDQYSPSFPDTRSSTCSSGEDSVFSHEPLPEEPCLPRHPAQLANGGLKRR

FGFR3 = FGFR3 (UniProt P22607); assay: as above
Sequence of FGFR3 (P22607 whole entry, looked up): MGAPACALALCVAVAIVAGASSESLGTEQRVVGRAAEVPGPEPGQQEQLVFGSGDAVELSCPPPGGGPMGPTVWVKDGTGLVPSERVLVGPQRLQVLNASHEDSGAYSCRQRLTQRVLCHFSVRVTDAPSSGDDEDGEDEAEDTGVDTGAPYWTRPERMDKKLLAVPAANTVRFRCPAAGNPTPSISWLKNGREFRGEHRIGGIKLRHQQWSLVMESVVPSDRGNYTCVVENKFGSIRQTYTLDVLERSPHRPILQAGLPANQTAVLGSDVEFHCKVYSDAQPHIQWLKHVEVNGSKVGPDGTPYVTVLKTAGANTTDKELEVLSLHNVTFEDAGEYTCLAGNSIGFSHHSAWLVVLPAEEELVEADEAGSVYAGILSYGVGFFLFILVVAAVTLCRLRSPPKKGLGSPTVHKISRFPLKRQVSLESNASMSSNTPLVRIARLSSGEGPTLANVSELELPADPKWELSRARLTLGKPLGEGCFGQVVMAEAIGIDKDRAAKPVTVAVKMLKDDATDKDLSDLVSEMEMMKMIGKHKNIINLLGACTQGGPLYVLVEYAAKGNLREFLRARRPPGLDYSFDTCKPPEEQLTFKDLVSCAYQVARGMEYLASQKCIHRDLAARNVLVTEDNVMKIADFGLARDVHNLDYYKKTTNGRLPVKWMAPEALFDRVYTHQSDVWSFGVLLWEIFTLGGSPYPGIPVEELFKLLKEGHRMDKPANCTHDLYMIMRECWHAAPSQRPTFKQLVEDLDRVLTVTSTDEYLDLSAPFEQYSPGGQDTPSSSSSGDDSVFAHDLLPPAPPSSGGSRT

Fer (mouse) = assay: as above
Fes = Fes (UniProt P07332); assay: as above
Fyn = Fyn (UniProt P06241); assay: as above
Sequence of Fyn (P06241 whole entry, looked up): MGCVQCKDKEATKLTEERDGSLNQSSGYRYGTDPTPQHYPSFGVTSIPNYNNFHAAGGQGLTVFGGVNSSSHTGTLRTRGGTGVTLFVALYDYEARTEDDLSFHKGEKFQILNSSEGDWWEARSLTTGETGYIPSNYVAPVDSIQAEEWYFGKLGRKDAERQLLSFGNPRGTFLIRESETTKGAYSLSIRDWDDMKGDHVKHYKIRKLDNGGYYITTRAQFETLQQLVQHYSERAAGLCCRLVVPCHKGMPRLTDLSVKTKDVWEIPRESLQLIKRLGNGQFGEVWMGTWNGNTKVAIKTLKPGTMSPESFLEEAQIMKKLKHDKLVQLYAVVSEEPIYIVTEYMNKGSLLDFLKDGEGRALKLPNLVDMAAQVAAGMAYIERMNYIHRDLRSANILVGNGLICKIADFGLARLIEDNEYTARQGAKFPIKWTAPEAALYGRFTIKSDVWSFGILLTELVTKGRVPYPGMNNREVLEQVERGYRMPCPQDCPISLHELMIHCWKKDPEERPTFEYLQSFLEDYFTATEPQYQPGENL

Hck = Hck (UniProt P08631); assay: as above
Sequence of Hck (P08631 whole entry, looked up): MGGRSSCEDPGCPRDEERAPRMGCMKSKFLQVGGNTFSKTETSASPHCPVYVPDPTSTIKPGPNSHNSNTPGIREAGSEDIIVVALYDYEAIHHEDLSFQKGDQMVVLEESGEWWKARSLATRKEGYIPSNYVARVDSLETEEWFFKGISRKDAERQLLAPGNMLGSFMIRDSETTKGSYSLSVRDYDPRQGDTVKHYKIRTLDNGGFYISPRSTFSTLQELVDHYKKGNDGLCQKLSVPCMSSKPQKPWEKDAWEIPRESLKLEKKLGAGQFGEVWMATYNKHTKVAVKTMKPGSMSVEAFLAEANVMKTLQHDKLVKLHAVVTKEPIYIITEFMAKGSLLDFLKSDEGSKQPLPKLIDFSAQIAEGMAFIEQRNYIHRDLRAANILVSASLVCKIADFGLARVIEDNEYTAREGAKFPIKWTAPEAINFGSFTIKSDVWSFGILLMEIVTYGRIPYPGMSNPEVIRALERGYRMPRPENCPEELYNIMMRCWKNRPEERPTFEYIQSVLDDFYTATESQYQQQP

Jak2 = Jak2 (UniProt O60674); assay: as above
Sequence of Jak2 (O60674 whole entry, looked up): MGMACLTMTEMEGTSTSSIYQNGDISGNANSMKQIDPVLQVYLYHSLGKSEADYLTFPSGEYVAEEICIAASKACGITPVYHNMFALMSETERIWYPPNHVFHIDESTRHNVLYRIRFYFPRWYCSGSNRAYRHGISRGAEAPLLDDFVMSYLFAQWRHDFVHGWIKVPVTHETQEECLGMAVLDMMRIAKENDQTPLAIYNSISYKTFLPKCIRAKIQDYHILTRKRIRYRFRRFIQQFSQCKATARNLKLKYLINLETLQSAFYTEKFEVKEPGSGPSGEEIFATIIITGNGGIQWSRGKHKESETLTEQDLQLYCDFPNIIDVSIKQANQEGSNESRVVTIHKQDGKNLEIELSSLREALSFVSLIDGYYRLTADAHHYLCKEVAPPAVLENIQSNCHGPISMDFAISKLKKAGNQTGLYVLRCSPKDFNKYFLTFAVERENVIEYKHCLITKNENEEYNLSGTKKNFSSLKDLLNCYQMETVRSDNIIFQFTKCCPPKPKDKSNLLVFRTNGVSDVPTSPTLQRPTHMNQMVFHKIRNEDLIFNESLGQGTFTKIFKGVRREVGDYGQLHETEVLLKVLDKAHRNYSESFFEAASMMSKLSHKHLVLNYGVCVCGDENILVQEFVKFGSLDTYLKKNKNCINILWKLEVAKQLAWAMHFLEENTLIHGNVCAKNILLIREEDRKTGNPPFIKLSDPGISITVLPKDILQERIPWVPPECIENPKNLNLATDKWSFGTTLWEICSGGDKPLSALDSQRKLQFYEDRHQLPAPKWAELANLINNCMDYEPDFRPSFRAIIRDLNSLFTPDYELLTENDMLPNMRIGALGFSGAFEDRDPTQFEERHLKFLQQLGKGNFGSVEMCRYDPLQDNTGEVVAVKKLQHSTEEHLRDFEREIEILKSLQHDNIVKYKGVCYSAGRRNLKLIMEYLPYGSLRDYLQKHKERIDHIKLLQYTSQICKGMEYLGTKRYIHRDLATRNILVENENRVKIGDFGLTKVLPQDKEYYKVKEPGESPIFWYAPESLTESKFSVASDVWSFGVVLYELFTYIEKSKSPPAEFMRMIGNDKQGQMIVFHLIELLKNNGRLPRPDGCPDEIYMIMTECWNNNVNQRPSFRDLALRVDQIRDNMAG

MERTK = MERTK (UniProt Q12866); assay: as above
Sequence of MERTK (Q12866 whole entry, looked up): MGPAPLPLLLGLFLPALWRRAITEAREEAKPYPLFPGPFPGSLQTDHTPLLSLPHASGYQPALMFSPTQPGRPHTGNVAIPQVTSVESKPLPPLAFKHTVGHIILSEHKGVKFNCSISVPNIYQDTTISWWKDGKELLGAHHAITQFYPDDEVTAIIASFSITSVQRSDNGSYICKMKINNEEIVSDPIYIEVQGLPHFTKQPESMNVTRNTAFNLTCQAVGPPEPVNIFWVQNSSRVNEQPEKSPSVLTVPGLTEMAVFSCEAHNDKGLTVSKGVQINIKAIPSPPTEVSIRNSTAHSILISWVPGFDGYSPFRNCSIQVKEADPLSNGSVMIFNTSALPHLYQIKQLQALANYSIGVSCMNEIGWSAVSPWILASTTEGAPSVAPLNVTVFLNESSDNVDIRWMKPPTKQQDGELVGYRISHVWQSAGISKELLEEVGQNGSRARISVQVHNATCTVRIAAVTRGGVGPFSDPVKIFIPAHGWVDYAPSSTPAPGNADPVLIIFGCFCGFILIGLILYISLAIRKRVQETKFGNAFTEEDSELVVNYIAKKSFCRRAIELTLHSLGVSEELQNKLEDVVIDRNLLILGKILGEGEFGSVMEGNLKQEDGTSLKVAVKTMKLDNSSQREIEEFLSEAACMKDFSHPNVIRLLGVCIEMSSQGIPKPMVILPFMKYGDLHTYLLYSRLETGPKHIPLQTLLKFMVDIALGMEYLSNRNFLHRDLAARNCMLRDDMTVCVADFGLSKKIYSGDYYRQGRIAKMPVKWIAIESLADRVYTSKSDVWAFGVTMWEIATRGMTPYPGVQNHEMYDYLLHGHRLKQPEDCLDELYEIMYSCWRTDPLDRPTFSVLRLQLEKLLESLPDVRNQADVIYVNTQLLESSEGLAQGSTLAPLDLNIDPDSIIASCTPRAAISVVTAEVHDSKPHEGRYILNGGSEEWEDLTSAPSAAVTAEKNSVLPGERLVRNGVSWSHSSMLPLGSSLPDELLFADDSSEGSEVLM

c-Abl (mouse) = assay: as above
c-Src = assay: as above
Grb2 SH2 = Grb2 SH2 (UniProt P62993); assay: SH2 binding enrichment of the phosphorylated peptide, bacterial display (enrichment ratio); higher = better substrate or ligand; peptides without Tyr show the background
SHP2-C SH2 = assay: as above
c-Src SH2 = assay: as above
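Throughout, for SH2 binding enrichment of the phosphorylated peptide, bacterial display: peptide library displayed on the E. coli surface as eCPX fusions, selected cells deep-sequenced, score is each peptide's frequency after selection divided by its frequency in the input.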
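Throughout, for phosphorylation enrichment, bacterial display: 11-residue human phosphosite peptides and single-mutation variants displayed on the E. coli surface, counted by deep sequencing, each peptide's frequency after selection divided by its frequency in the unselected input library; frequency after pTyr selection over input frequency; kinase dosed for 20-30% of maximal phosphorylation in three min.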

SH2 binding enrichment (Grb2 SH2) | SH2 binding enrichment (SHP2-C SH2) | SH2 binding enrichment (c-Src SH2) | Sequence | phosphorylation enrichment (AncSZ) | phosphorylation enrichment (EPHB1) | phosphorylation enrichment (EPHB2) | phosphorylation enrichment (FGFR1) | phosphorylation enrichment (FGFR3) | phosphorylation enrichment (Fer (mouse)) | phosphorylation enrichment (Fes) | phosphorylation enrichment (Fyn) | phosphorylation enrichment (Hck) | phosphorylation enrichment (Jak2) | phosphorylation enrichment (MERTK) | phosphorylation enrichment (c-Abl (mouse)) | phosphorylation enrichment (c-Src)
0.883 | 0.631 | 1.32 | PEVSGYCHFAD [TG_Y234_C237Y_YF] | 1.29 | 0.745 | 0.782 | 0.709 | 0.773 | 0.517 | 1.39 | 0.532 | 0.639 | 1.15 | 0.384 | 0.937 | 0.572
0.857 | 1.03 | 0.666 | PFADPYFDFEI [ZC3H18_Y371_YF] | 1.48 | 0.673 | 0.369 | 9.45 | 6.94 | 0.902 | 1.16 | 0.885 | 0.597 | 1.7 | 0.638 | 0.811 | 4.46
0.682 | 0.612 | 0.595 | PFIDSYEKDVA [PGM1_Y521_L516P_YF] | 1.07 | 0.574 | 0.708 | 0.592 | 0.636 | 0.35 | 1.04 | 0.656 | 0.606 | 0.594 | 0.378 | 0.51 | 0.375
0.933 | 1.12 | 0.776 | PGGKIYISPLK [RB1_Y805_N803K] | 0.598 | 0.361 | 0.763 | 0.45 | 0.583 | 0.441 | 0.794 | 0.513 | 0.456 | 0.72 | 0.461 | 1.17 | 0.422
1.04 | 0.629 | 0.561 | PGVNYYFQVSA | 2.15 | 1.61 | 1.49 | 2.98 | 3.16 | 0.907 | 2.14 | 0.611 | 1.03 | 2.79 | 0.734 | 1.48 | 0.692
0.347 | 0.651 | 0.493 | PLEGEYFTLQI [TP53_Y327_D324E] | 6.22 | 4.24 | 5.04 | 18.5 | 15.5 | 3.01 | 3 | 9.83 | 4.86 | 5.5 | 0.967 | 2.98 | 7.65
0.679 | 0.555 | 0.383 | PMQLPHDSTWE [PDGFRB_Y589_Y589H] | 2.22 | 0.829 | 0.776 | 0.66 | 1.23 | 0.737 | 1.96 | 0.582 | 0.78 | 1.34 | 0.531 | 1.61 | 0.628

More lines, now with the values behind:

Sequence | SH2 binding enrichment (Grb2 SH2) | SH2 binding enrichment (SHP2-C SH2) | SH2 binding enrichment (c-Src SH2) | phosphorylation enrichment (AncSZ) | phosphorylation enrichment (EPHB1) | phosphorylation enrichment (EPHB2) | phosphorylation enrichment (FGFR1) | phosphorylation enrichment (FGFR3) | phosphorylation enrichment (Fer (mouse)) | phosphorylation enrichment (Fes) | phosphorylation enrichment (Fyn) | phosphorylation enrichment (Hck) | phosphorylation enrichment (Jak2) | phosphorylation enrichment (MERTK) | phosphorylation enrichment (c-Abl (mouse)) | phosphorylation enrichment (c-Src)
PEFVVYKPQME [CCRL2_Y170] | 1.02 | 0.686 | 0.635 | 1.7 | 1.12 | 0.843 | 0.673 | 1.08 | 0.898 | 1.82 | 0.814 | 0.883 | 1.82 | 0.972 | 1.42 | 0.783
PIQLFYTRRNT [GHR_Y86] | 0.74 | 0.594 | 0.492 | 1.18 | 0.766 | 0.775 | 0.982 | 0.884 | 0.913 | 1.13 | 0.938 | 0.957 | 0.713 | 0.691 | 0.738 | 0.919
PLFSKYWPNHI [GREB1L_Y1560_R1558S_YF] | 0.917 | 0.736 | 0.459 | 2.32 | 1 | 0.925 | 0.823 | 0.724 | 0.907 | 1.33 | 0.805 | 0.801 | 0.933 | 1.13 | 1.47 | 1.38
PLLEFYWDIFT [CDAN1_Y713_R714W_YF] | 0.926 | 0.719 | 0.527 | 0.971 | 0.833 | 0.645 | 0.428 | 0.94 | 0.527 | 1.2 | 0.448 | 0.458 | 1.17 | 0.284 | 0.828 | 0.412
PPAPRYHHLAV [LZTR1_Y119_S122L] | 1.45 | 1.36 | 1.98 | 0.868 | 0.606 | 0.514 | 0.377 | 0.745 | 0.491 | 0.964 | 0.444 | 0.71 | 1.19 | 0.556 | 0.664 | 0.552
PQGVRYIYTID [DCX_Y103] | 0.772 | 15.4 | 0.618 | 1.73 | 0.943 | 0.951 | 0.726 | 1.15 | 1 | 5.16 | 4.01 | 1.6 | 2.21 | 0.856 | 1.37 | 4.09
PRAGVYPEKDQ [DNM2_Y626_L621P] | 0.635 | 0.917 | 0.403 | 1.16 | 0.734 | 0.622 | 0.642 | 0.759 | 0.658 | 1.26 | 0.658 | 0.662 | 1.08 | 0.511 | 0.865 | 0.682
PRLLRYLQLDF [ASB10_Y457] | 1.27 | 1.6 | 1.11 | 1.39 | 0.995 | 0.73 | 0.648 | 0.873 | 0.662 | 1.67 | 0.692 | 0.65 | 1.53 | 0.701 | 1.04 | 0.616
PRLMLYNPTTF [EGFR_Y270_P266R_YF] | 0.968 | 0.631 | 0.505 | 1.16 | 0.763 | 0.811 | 0.772 | 1.04 | 0.848 | 1.18 | 0.748 | 0.618 | 1.38 | 0.703 | 1.12 | 0.729
